Common to all, as to format: cell-based
In data set [1] the test system is firefly luciferase expression in HEK 293 cells. As to the kind of experiment: Firefly luciferase assay of HEK 293 cells transfected with twister ribozyme constructs (no ligand). The settings on record: twister in 3′ UTR of firefly luciferase, compared to pFLuc control construct. The source says:
Plasmid constructs: The following primers were used to generate constructs GFP_wasp_No Sac 0HP or GFP_wasp_No Sac 3HP: forward primers NoSac_Fwd (5′ […]) and NoSac3HP_Fwd (5′ […]) and reverse primer MfeI Rev (5′ […]). GFP_wasp-twister vector was used as template and the PCR-amplified DNA fragments were digested with BsrGI and MfeI and cloned into pEGFP-C1 digested with BsrGI and MfeI enzymes. The EGFP gene in pEGFP-C1 was replaced with the firefly luciferase gene to generate the pFLuc vector using Gibson cloning strategy and cloning kit (NEB). The same strategy was used to generate constructs Luc_wasp_No Sac 0HP and Luc_wasp_No Sac 3 HP by replacing the EGFP gene in constructs GFP_wasp_no Sac 0HP and GFP_wasp_no Sac 3HP with the firefly luciferase gene.
Firefly luciferase assay of cultured cells: 24 hours after media change, plates were removed from the incubator, equilibrated to RT for several minutes on a lab bench, and then aspirated. Glo-lysis buffer (Promega, 100 μL, RT) was added, and the plates allowed to remain at RT for at least 5 minutes. […] Following a 5-minute incubation at RT, luminescence was measured using a Tecan machine with 500 mSec read time. The luciferase activity was expressed as mean relative light unit (RLU)±S.D.

For data set [2] the test system is unchanged. As to the kind of experiment: Firefly luciferase assay of transfected HEK 293 cells treated with or without guanine or guanosine. The settings on record: for reduction of luciferase gene expression in the presence of guanine: riboswitch and linker2A downstream of start codon, guanine vs untreated control. How it is done:
Firefly luciferase assay of cultured cells: 24 hours after media change, plates were removed from the incubator, equilibrated to RT for several minutes on a lab bench, and then aspirated. Glo-lysis buffer (Promega, 100 μL, RT) was added, and the plates allowed to remain at RT for at least 5 minutes. The well contents were mixed by 50 μL trituration, and 20 μL of each sample was mixed with 20 μL of bright-glo reagent (Promega) that had been diluted to 10% in glo-lysis buffer. 96 wells were spaced on an opaque white 384-well plate. Following a 5-minute incubation at RT, luminescence was measured using a Tecan machine with 500 mSec read time. The luciferase activity was expressed as mean relative light unit (RLU)±S.D. […]
Transfection and aptamer ligand treatment: HEK 293 cells were transfected as described in Example 1. Four hours after transfection, the media was aspirated, and new media with or without 500 μM guanine or 1 mM guanosine (Sigma) was added. Luciferase assay was performed 20 to 24 hours after guanine or guanosine treatment as described in Example 2. The reduction fold was expressed as the quotient of luciferase activity obtained in the absence of aptamer ligand divided by the value obtained in the presence of the aptamer ligand.
Oligos containing either a start codon or coding sequence for the first 10 amino acids of GFP and waspGua16 followed by a linker2A sequence were synthesized (IDT) and cloned into the pLuc vector using the Gibson cloning strategy and cloning kit (NEB). Transfection and luciferase assay of cultured cells were performed as described in Example 3. […]

In data set [3] the test system is mouse erythropoietin (Epo) gene expression in HEK 293 cells. The data set is described as follows: ELISA assay for measuring mouse Epo in culture media of transfected HEK 293 cells. To be noted: riboswitch in 3′ UTR of mouse Epo gene; ligand-treated vs solvent-treated control cells; supernatant 18 hours after treatment. On the procedure: FIG. 3e. HEK 293 cells were transfected with the indicated constructs, and treated with 500 μM guanosine. DMSO was used as solvent control. Supernatant was collected 18 hours after guanosine treatment, the Epo was measured using ELISA kit. The results were expressed as mean±SD (n=2). Shown is the representative of two independent experiments.
ELISA assay for measuring mouse Epo in culture media: Supernatant was collected 18 hours after drug treatment, and an ELISA was performed using ELISA kit (R&D) according to manufacturer's instructions. The data was analyzed using 4-parameter curve fitting.
In general terms: In an ELISA, binding on a coated surface is turned into a signal by an enzyme label.

The subject of data set [4] is firefly luciferase expression in HEK 293 cells. The data set is described as follows: Firefly luciferase assay of transfected HEK 293 cells treated with or without theophylline. On the procedure:
Firefly luciferase assay of cultured cells: 24 hours after media change, plates were removed from the incubator, equilibrated to RT for several minutes on a lab bench, and then aspirated. Glo-lysis buffer (Promega, 100 μL, RT) was added, and the plates allowed to remain at RT for at least 5 minutes. The well contents were mixed by 50 μL trituration, and 20 μL of each sample was mixed with 20 μL of bright-glo reagent (Promega) that had been diluted to 10% in glo-lysis buffer. 96 wells were spaced on an opaque white 384-well plate. Following a 5-minute incubation at RT, luminescence was measured using a Tecan machine with 500 mSec read time. The luciferase activity was expressed as mean relative light unit (RLU)±S.D.
Oligos containing the twister ribozyme sequence linked with theophylline aptamer were synthesized (IDT), and cloned into pLuc vector using Gibson cloning strategy and kit (NEB). Construct sequences were verified by DNA sequencing (Genewiz).
Transfection and firefly luciferase assay: HEK 293 cells were transfected as described in Example 1. Four hours after transfection, the media was aspirated, and new media with or without 2 mM theophylline (Sigma) was added. […] The reduction fold was expressed as the quotient of luciferase activity obtained in the absence of aptamer ligand divided by the value obtained in the presence of the aptamer ligand.

[5] abbreviates: 500 μM guanine vs no guanine, riboswitch in 3′ UTR.

Values joined by “and” are separate entries in the source; they are usually repeats but may differ in a detail not shown here. Identical values can stand only once.

B1: Luc_wasp_No Sac 0HP: Firefly luciferase construct with wasp twister without SacII sequence in 3′ UTR (nucleic acid)
DNA: TCAGAGAGATCCTCATAAAGGCCAAGAAGGGCGGAAAGATCGCCGTGTAAACTTGTAATGCGGCCGTGTAAATAATTTACACGTCGGTCTCAAGCCCGATAAACGCAGAGAGCAAGGCGGCCGCCATACCACATTTGTAGAGGTTTTACTTGCTTTAAAAAACCTCCCACACCTCCCCCTGAACCTGAAACATAAAATGAATG
modifications: misc_feature 1..203 wasp_No Sac 0HP in pLuc
As to B1, the “fold reduction of luciferase activity” value in data set [1] is on record as 101 fold.

B2: ATG_waspGua16: waspGua16 and linker2A inserted downstream of ATG and upstream of remaining luciferase coding sequence (nucleic acid)
DNA: ATGACGCCTTGTAATGCGGCATATAATCGCGTGGATATGGCACGCAAGTTTCTACCGGGCACCGTAAATGTCCGACTATTCGGTCTCAAGCCCGATAAACGCAGAGAGCAAGGCGAAGGCGGATCTTCAGGTAGTGGCGAGGGCAGAGGAAGTCTTCTAACATGCGGTGACGTGGAGGAGAATCCCGGCCCCGAAGACGCCAAAAACATAAAGAAAGGCCCGGCGCCA
modifications: misc_feature 1..228 ATG_wtWaspGua16 in pLuc
Take B2: in data set [2], the “reduction of luciferase gene expression in the presence of guanine” value is 68%.

B3: 10aa_waspGua16: waspGua16 and linker2A inserted downstream of the coding sequence for the first 10 amino acids of GFP, in pLuc (nucleic acid)
DNA: ATGGTGAGCAAGGGCGAGGAGCTGTTCACCACGCCTTGTAATGCGGCATATAATCGCGTGGATATGGCACGCAAGTTTCTACCGGGCACCGTAAATGTCCGACTATTCGGTCTCAAGCCCGATAAACGCAGAGAGCAAGGCGAAGGCGGATCTTCAGGTAGTGGCGAGGGCAGAGGAAGTCTTCTAACATGCGGTGACGTGGAGGAGAATCCCGGCCCCGAAGACGCCAAAAACATAAAGAAAGGCCCGGCGCCA
modifications: misc_feature 1..255 10aa_wtWaspGua16 in pLuc
On to B3, for which, in data set [2], the “reduction of luciferase gene expression in the presence of guanine” value was determined as 68%.

B4: Luc_wasp_No Sac 3HP: Firefly luciferase construct with wasp twister with 3 bp stem (3HP) at P1 stem in 3′ UTR (nucleic acid)
DNA: TCAGAGAGATCCTCATAAAGGCCAAGAAGGGCGGAAAGATCGCCGTGTAAACGCCTTGTAATGCGGCCGTGTAAATAATTTACACGTCGGTCTCAAGCCCGATAAACGCAGAGAGCAAGGCGGCCGCCATACCACATTTGTAGAGGTTTTACTTGCTTTAAAAAACCTCCCACACCTCCCCCTGAACCTGAAACATAAAATGAATGC
modifications: misc_feature 1..207 wasp_No Sac 3HP in pLuc
notes: Firefly luciferase construct with wasp twister with 3 bp stem (3HP) at P1 stem in 3′ UTR
Take B4: the “fold reduction of luciferase activity” value in data set [1] was determined as 254 fold.

B5: Luci-waspGua16: Luciferase construct with 3 bp of stem connecting the guanine aptamer directly to twister loop 2; OFF riboswitch in 3′ UTR (nucleic acid)
DNA: TCAGAGAGATCCTCATAAAGGCCAAGAAGGGCGGAAAGATCGCCGTGTAAACGCCTTGTAATGCGGCATATAATCGCGTGGATATGGCACGCAAGTTTCTACCGGGCACCGTAAATGTCCGACTATTCGGTCTCAAGCCCGATAAACGCAGAGAGCAAGGCGGCCGCCATACCACATTTGTAGAGGTTTTACTTGCTTTAAAAAACCTCCCACACCTCCCCCTGAACCTGAAACATAAAATGAATGC
modifications: misc_feature 1..247 waspGua16 in pLuc
notes: Luciferase construct with 3 bp of stem connecting the guanine aptamer directly to twister loop 2; OFF riboswitch in 3′ UTR
On to B5, for which, in data set [2] (setting [5]), the “fold reduction in luciferase activity upon guanine treatment” value is 15 fold and 12 fold; the “reduction in luciferase activity upon guanine treatment” value worked out at 92%. Also, in data set [2] (500 μM guanine, riboswitch in 3′ UTR), the “reduction in luciferase activity upon guanine treatment (in words)” value was “reduced luciferase activity”. In data set [2] (guanosine at 1 mM as aptamer ligand, riboswitch in 3′ UTR), the “fold reduction in luciferase expression upon guanosine treatment” value is listed as 25 fold. Moreover, the “reduction of Epo production” value in data set [3] was “approximately 30%”.

B6: twister_theo_3: Theophylline aptamer linked by 3 bp stem to loop 2 of twister ribozyme, in pLuc (nucleic acid)
DNA: TCAGAGAGATCCTCATAAAGGCCAAGAAGGGCGGAAAGATCGCCGTGTAAACGCCTTGTAATGCGGCGCGATACCAGCCGAAAGGCCCTTGGCAGCGTTCGGTCTCAAGCCCGATAAACGCAGAGAGCAAGGCGGCCGCCATACCACATTTGTAGAGGTTTTACTTGCTTTAAAAAACCTCCCACACCTCCCCCTGAACCTGAAACATAAAATGAATGC
modifications: misc_feature 1..219 twister_theo_3 in pLuc
notes: Theophylline aptamer linked by 3 bp stem to loop 2 of twister ribozyme, in pLuc
For the molecule B6, the “reduction in gene expression (luciferase activity) upon theophylline treatment” value in data set [4] (2 mM theophylline vs no theophylline) was 62%. Further, the “luciferase activity in the absence of aptamer ligand (in words)” value in data set [4] (no theophylline) is given as “the most robust luciferase activity”.
